# Data as given in PMC5493697, “Crystal structure of Pelagibacterium halotolerans PE8: New insight into its substrate-binding pattern” (Scientific Reports, 2017).
# Substrate: CC(=O)Oc1ccc([N+](=O)[O-])cc1
# Assay: purified protein
# Type: biochemical, Pelagibacterium halotolerans
# Details: 100 mM Tris-HCl pH 7.5, 30 °C, 0.05-4 mM substrate in acetonitrile
Protein,Km [µM],Vmax [µM/min/mg],kcat [s⁻¹]
"PE8 (Pelagibacterium halotolerans B2; S118A) (protein, 6xHis fusion from pET28b in E. coli Rosetta (DE3), Ni-NTA and SEC; monomer; catalytic triad Ser118, Asp169, His201) MTEPVKLSGPMLPAVSGAAKSLVVLLHGYGSDGRDLIALGQFWRDSFPDTMFVAPNAPHVCGGNPFGYEWFPLDLERDRTLARLAGAETAHPVLDAFLADLWAQTGLGPADTILVGFAQGAMMALYTGLRLPEPLKAIIAFSGLIVAPEKLEAEIASKPPVLLIHGDLDDVVPVIGSETALPKLIDLGIDARLHISQGSGHTIAQDGLDTATAFLREIL",540 ± 46,12,5.1 ± 0.14
"PE8 (Pelagibacterium halotolerans B2; R79A) (protein, 6xHis fusion from pET28b in E. coli Rosetta (DE3), Ni-NTA and SEC; monomer; catalytic triad Ser118, Asp169, His201) MTEPVKLSGPMLPAVSGAAKSLVVLLHGYGSDGRDLIALGQFWRDSFPDTMFVAPNAPHVCGGNPFGYEWFPLDLERDATLARLAGAETAHPVLDAFLADLWAQTGLGPADTILVGFSQGAMMALYTGLRLPEPLKAIIAFSGLIVAPEKLEAEIASKPPVLLIHGDLDDVVPVIGSETALPKLIDLGIDARLHISQGSGHTIAQDGLDTATAFLREIL",600 ± 62,132,55 ± 1.7
"PE8 (Pelagibacterium halotolerans B2; V172A) (protein, 6xHis fusion from pET28b in E. coli Rosetta (DE3), Ni-NTA and SEC; monomer; catalytic triad Ser118, Asp169, His201) MTEPVKLSGPMLPAVSGAAKSLVVLLHGYGSDGRDLIALGQFWRDSFPDTMFVAPNAPHVCGGNPFGYEWFPLDLERDRTLARLAGAETAHPVLDAFLADLWAQTGLGPADTILVGFSQGAMMALYTGLRLPEPLKAIIAFSGLIVAPEKLEAEIASKPPVLLIHGDLDDVAPVIGSETALPKLIDLGIDARLHISQGSGHTIAQDGLDTATAFLREIL",500 ± 35,82,35 ± 0.63
"PE8 (Pelagibacterium halotolerans B2; M122A) (protein, 6xHis fusion from pET28b in E. coli Rosetta (DE3), Ni-NTA and SEC; monomer; catalytic triad Ser118, Asp169, His201) MTEPVKLSGPMLPAVSGAAKSLVVLLHGYGSDGRDLIALGQFWRDSFPDTMFVAPNAPHVCGGNPFGYEWFPLDLERDRTLARLAGAETAHPVLDAFLADLWAQTGLGPADTILVGFSQGAAMALYTGLRLPEPLKAIIAFSGLIVAPEKLEAEIASKPPVLLIHGDLDDVVPVIGSETALPKLIDLGIDARLHISQGSGHTIAQDGLDTATAFLREIL",75 ± 6.9,96,40 ± 0.68
"PE8 (Pelagibacterium halotolerans B2; V171A) (protein, 6xHis fusion from pET28b in E. coli Rosetta (DE3), Ni-NTA and SEC; monomer; catalytic triad Ser118, Asp169, His201) MTEPVKLSGPMLPAVSGAAKSLVVLLHGYGSDGRDLIALGQFWRDSFPDTMFVAPNAPHVCGGNPFGYEWFPLDLERDRTLARLAGAETAHPVLDAFLADLWAQTGLGPADTILVGFSQGAMMALYTGLRLPEPLKAIIAFSGLIVAPEKLEAEIASKPPVLLIHGDLDDAVPVIGSETALPKLIDLGIDARLHISQGSGHTIAQDGLDTATAFLREIL",890 ± 70,36,19 ± 0.42
"PE8 (Pelagibacterium halotolerans B2; L73A) (protein, 6xHis fusion from pET28b in E. coli Rosetta (DE3), Ni-NTA and SEC; monomer; catalytic triad Ser118, Asp169, His201) MTEPVKLSGPMLPAVSGAAKSLVVLLHGYGSDGRDLIALGQFWRDSFPDTMFVAPNAPHVCGGNPFGYEWFPADLERDRTLARLAGAETAHPVLDAFLADLWAQTGLGPADTILVGFSQGAMMALYTGLRLPEPLKAIIAFSGLIVAPEKLEAEIASKPPVLLIHGDLDDVVPVIGSETALPKLIDLGIDARLHISQGSGHTIAQDGLDTATAFLREIL",530 ± 26,55,23 ± 0.27
"PE8 (Pelagibacterium halotolerans B2) (protein, 6xHis fusion from pET28b in E. coli Rosetta (DE3), Ni-NTA and SEC; monomer; catalytic triad Ser118, Asp169, His201) MTEPVKLSGPMLPAVSGAAKSLVVLLHGYGSDGRDLIALGQFWRDSFPDTMFVAPNAPHVCGGNPFGYEWFPLDLERDRTLARLAGAETAHPVLDAFLADLWAQTGLGPADTILVGFSQGAMMALYTGLRLPEPLKAIIAFSGLIVAPEKLEAEIASKPPVLLIHGDLDDVVPVIGSETALPKLIDLGIDARLHISQGSGHTIAQDGLDTATAFLREIL",660 ± 49,71,30 ± 0.68
"PE8 (Pelagibacterium halotolerans B2; R83A) (protein, 6xHis fusion from pET28b in E. coli Rosetta (DE3), Ni-NTA and SEC; monomer; catalytic triad Ser118, Asp169, His201) MTEPVKLSGPMLPAVSGAAKSLVVLLHGYGSDGRDLIALGQFWRDSFPDTMFVAPNAPHVCGGNPFGYEWFPLDLERDRTLAALAGAETAHPVLDAFLADLWAQTGLGPADTILVGFSQGAMMALYTGLRLPEPLKAIIAFSGLIVAPEKLEAEIASKPPVLLIHGDLDDVVPVIGSETALPKLIDLGIDARLHISQGSGHTIAQDGLDTATAFLREIL",600 ± 23,97,41 ± 0.42
